# The supplement of paper PMC12042874
# ± gives the uncertainty stated by the source.
# Assay: amyloid nucleation score (Sup35N fusion, yeast selection) (log enrichment); library NNK2; higher = more nucleation; inactive = no reads after selection
# Procedure, shortened: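 Output and input plasmid inserts were sequenced by Illumina after psi-negative yeast carrying Sup35N fused to peptides of 20 random codons had been induced 24 hours with 100 μM copper sulfate and grown 7 days at 30°C on medium lacking adenine and uracil. The nucleation score is the DiMSum log enrichment of output over input reads, centred on the mode score of non-aggregating sequences. Sequences with under 100 input reads were excluded.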
row,Substance,amyloid nucleation score
1,VDILGMGRNHM,-1.04 ± 0.78
2,CCMCCNDYCRPCFREGVWIG,-0.121 ± 1.1
3,LSFPHVLYFETCPCMARVVA,-0.081 ± 1.1
4,VYYIYQLEWSDVFFSAYGVH,-0.072 ± 0.76
5,CMKKWFS,3.85 ± 0.075
6,FTFFIRYLERDWPRLL,-0.549 ± 0.74
7,YMSNPSELWKNWILVHYHFC,3.56 ± 0.076
8,QYMYLYIKRMMYSSTKKF,inactive
9,GLLKTQ,-0.087 ± 0.31
10,GYKDANQNM,inactive
11,LERLVSALLHTIRFRRMVVH,inactive
12,YNISDLSMSYMAIRAYDSGS,-1.38 ± 0.62
13,YDRDCTRPCSPSSRGNFRDE,inactive
14,NISMTTWW,4.71 ± 0.11
15,HFMFVSNRVGWVGLLQNYSR,6.657 ± 0.066
16,LYRLSFSLFWERNRVHSFIR,-0.232 ± 1.1
17,TSYIVDTSSLFITRASTG,0.336 ± 0.44
18,RGVLYAKVL,0.808 ± 0.33
19,NCFSSRGGARTFGIKLIFSV,0.524 ± 0.51
20,YITFSDRLWTLLLWCRILWL,-0.002 ± 1
21,YGMKTGVNIFVVDVEMVKRS,5.93 ± 0.068
22,TWLIRPKWVSVQVIRMLPMV,1.11 ± 0.41

row,Substance,amyloid nucleation score
1,AYRSDCIRHGGPFAGYNICI,0.044 ± 1.1
2,SGWWTKHRTMLKYYTLFAMG,-0.449 ± 0.44
3,AVGNNN,-1.11 ± 0.74
4,NFILLDLLSLAICASRVLWA,1.56 ± 0.087
5,YHSFLWKINSCAVMMEDSTG,0.811 ± 0.67
6,CNYVQIMLS,2.81 ± 0.056
7,LRVQGGWL,1.49 ± 0.34
8,TRYHLHSALT,-0.12 ± 1
9,FYSLILMMEDGSEYVKVEFR,-1.38 ± 0.75
10,LGKFFNNPLLFGFY,inactive
11,ISFWSHSDTFVGNEGEHSVR,1.29 ± 0.42
12,LEAFWKVKSCSVRTGVYGID,-0.555 ± 0.79
13,FRYRKSLDCNAMVPERQTGT,1.11 ± 0.53
14,FGKYDGTYRSPVGYGFMWS,0.397 ± 0.41
15,WGRLGARCYRRILVPGRCLE,-0.756 ± 0.48
16,RGVDYVLSCL,-1.21 ± 0.61
17,FMYLPL,-0.596 ± 0.3
18,YDPVAVF,-0.945 ± 0.43
19,SLDIDQTVRFTTK,5.618 ± 0.036
20,SSFLATVSVQCNDRYNSHRS,4.26 ± 0.064
21,AELSA,0.606 ± 0.8
22,TCSFMMCLPTRLARIIDPWM,-0.322 ± 0.49

row,Substance,amyloid nucleation score
1,VTVCC,1.69 ± 0.2
2,NGDLCILLTWATWGSTE,0.686 ± 0.33
3,WIITNCSLFFSVALS,6.79 ± 0.085
4,WALYVGGANRFFMCQWVNLG,2.26 ± 0.13
5,GNVLTVIKAKDGS,-0.606 ± 0.49
6,GVGGRVWTC,-0.998 ± 0.76
7,FAHAIVSHDWDQRVRGWSGC,0.836 ± 0.41
8,VRLLSFEINSWWLCACCRSV,7 ± 0.076
9,TWCMRMNCSAFRKGVVNYSR,2.91 ± 0.078
10,IPNSGRGWSPAWPKMALTYS,0.746 ± 0.24
11,HCAEHQPASGVLVTGYWDLG,0.444 ± 0.54
12,DRRLCLCLLIMSC,-0.578 ± 0.79
13,VKCLGAFGDE,-0.012 ± 1.1
14,SGRTGIGWYLFCRPYPIVYA,0.277 ± 0.39
15,VLLQNYAMVAFT,-1.07 ± 0.45
16,FFTMCVAMYVVRSAYGMHN,-0.03 ± 0.44
17,WQRMDGIGELILMCCRYSFL,5.819 ± 0.033
18,CSVNNSSLCIVVVAWFCGLD,0.711 ± 0.45
19,ADCLKSCLAMSGF,-0.14 ± 0.8
20,SFVCWITVCNFRVSQ,3.21 ± 0.12
21,HYVIVNIICCSDVGVLSRDR,9.454 ± 0.069
22,CKCPYFLCIRFWDVDSAMLS,2.21 ± 0.076

row,Substance,amyloid nucleation score
1,GGMVVPGKYRDRGY,-0.227 ± 0.26
2,IKYLKCIVMCRFFVHWSSIV,-1.06 ± 0.76
3,RMLCSHINYLIVGMG,-0.061 ± 0.28
4,SSKETGRRTVDRFQYMTRYR,1.94 ± 0.32
5,CGWGYLTCPSRTVVWARAGV,1.35 ± 0.25
6,LYSWAFSS,inactive
7,PDRVLLYKLTVRRFTGCDWG,2.32 ± 0.17
8,FKSLLCLFAWRLVTFHVGE,-0.73 ± 1.1
9,VLDTMYGTDIQRRTMGKANT,0.391 ± 0.36
10,DCTLAVLFYKTEFITPRAQW,2.28 ± 0.14
11,GLLGAVDRTVR,0.238 ± 0.56
12,YYDLRAATESDVRHGTADHR,0.195 ± 0.37
13,SSLNHNPGWTEIYELHLVGF,0.27 ± 0.8
14,QFWVPTLEAWSWTSAFPYMP,-0.536 ± 1.1
15,CDVNYL,-0.681 ± 0.3
16,VMHSYDYVTMGFRSRTDPFR,3.05 ± 0.14
17,AEAYGTSSRRSCCRGRVV,0.476 ± 0.5
18,SYDLELAT,0.667 ± 0.18
19,TVRRTRFLNNISFNGFNVFV,7.383 ± 0.054
20,MYLVYHYLSVRAFLFMSTMV,-0.39 ± 0.61
21,YFLVKFSSNTFIVWTHRYFQ,0.057 ± 1.1
